Assays:
[1] = system: human primary hepatocytes; test: Caspase activation in human primary hepatocytes; format: cell-based; conditions: 6 hrs following treatment; T1014G03 62.5-1000 ng/ml, TRAIL 15.6-1000 ng/mL
Method: (§1) The effect of T1014G03 (lot AB22125-M2) in human primary hepatocytes was determined by measuring either caspase activation or cell viability. Human hepatocytes were treated with 15.6, 62.5, 250 or 1000 ng/mL of TRAIL (amino acid residues 114-281, Biomol Research Laboratories Inc, Plymouth Meeting, Pa.), 62.5, 125, 250, or 1000 ng/ml of isotype control mAb (hlgG1,CAT002) or 62.5, 125, 250, or 1000 ng/ml T1014G03. Caspase activation was determined at 6 hrs following treatment, while viability was determined at 24 hrs following treatment.
(§2) Caspase activity was measured using a fluorimetric assay utilizing the caspase substrate Rhodamine conjugated DEVD, (e.g., Homogeneous Fluorimetric Caspases Assay available from Roche Molecular Biochemicals (Indianapolis, Ind.)). Cell viability was determined using an ALAMAR Blue™ (Biosource International, Camarillo, Calif.) assay. […] In contrast to TRAIL, T1014G03 treatment was found not to effect either caspase or cell viability in human hepatocytes.

[2] = system: human primary hepatocytes; test: Cell viability of human primary hepatocytes (ALAMAR Blue); format: cell-based; conditions: 24 hrs following treatment; T1014G03 62.5-1000 ng/ml, TRAIL 15.6-1000 ng/mL
Method: as §1, §2

TRAIL: TRAIL (amino acid residues 114-281, Biomol Research Laboratories Inc)
caspase activity [1]: induced caspase activity at the highest concentration tested | cell viability [2]: reduced cell viability at all concentrations tested
